The subject of experiment [1] is EGFP reporter (7×TetO array, basal CMV promoter) in HEK293T reporter cell line. Put plainly: Arrayed recruitment assay, PYL1 fusions individually recruited to reporter via ABI1-dCas9 with ABA. The class given is cell-based, human. Conditions: PYL1 fusion, ABA 48 hours, flow cytometry. From the text: Treatment of cells with abscisic acid (ABA) induces an interaction between ABI1 and PYL1, thereby recruiting the potential transcriptional activator to a specific genomic locus defined by the guide RNA (gRNA). As a reporter, a HEK293T cell line that contains a stably integrated construct with a 7×TetO array and a basal CMV promoter driving the expression of EGFP was used (Gao et al., 2016). A monoclonal cell line that expresses ABI1-dCas9 and a single gRNA targeting TetO was generated by lentiviral infection.
Arrayed recruitment assays. Reporter cells stably co-expressing ABI-dCas9 and TetO gRNA were seeded either on 48-well or 96-well plates (Sarstedt) to reach 50-70% confluency on the day of transfection. 150 ng of each construct to be tested was transfected with polyethylenimine (PEI) at a ratio of 0.6 μl reagent. The day after transfection, recruitment was induced by treatment with ABA (100 μM). […] Inhibitors were dissolved in DMSO to a stock concentration of 10 mM. The final concentrations used were 100 nM for flavopiridol, 300 nM for JQ1, 1 μM for A-485, 2.5 μM for CX-4945 and 3 μM for AZ191. All inhibitors were a kind gift from the Structural Genomics Consortium (SGC). 48 hours after induction, cells were dissociated and resuspended in flow buffer using a liquid handing robot (TECAN) and analyzed by LSR Fortessa (BD). Cells were gated on high EBFP2 and RFP as a measure of gRNA and transfection control, respectively. Flow cytometry data was analyzed using FlowJo (v10).

Experiment [2] relates to NIH3T3 cells gene expression. Put plainly: RNA sequencing of NIH-3T3 cells with doxycycline-inducible EGFP-tagged constructs. The class given is cell-based, mouse. Conditions: GFP-tagged. The source says:
The SRF/TCF pathway, which is regulated by MAP kinase signaling, regulates the expression of immediate-early genes (Gualdrini et al., 2016), whereas the actin-Rho signaling dependent SRF/MRTF pathway targets genes involved in cell motility and adhesion (Miralles et al., 2003). To test if SRF-C3orf62 can regulate target genes of both pathways, stable doxycycline-inducible NIH3T3 cell lines stably expressing SRF, C3orf62, SRF-C3orf62 and Nanoluc fused to GFP were generated. Transgene expression was induced with doxycycline for 24 hours and changes in gene expression were analyzed by RNA-seq. […] These signatures are consistent with the oncogenic nature of the SRF-C3orf62 fusion. […] In contrast, many well-characterized immediate-early target genes of SRF/TCF such as FOS, EGR1, or EGR2 were not affected by ectopic SRF-C3orf62 expression (FIG. 5H).
RNA sequencing and analysis. NIH-3T3 cells with stable integrations of SRF, C3orf62, SRF-C3orf62 or Nanoluc tagged at the C-terminus with EGFP were induced with 1 μg/mL doxycycline for 24 hours. […] Reads were aligned to the Gencode mouse primary assembly (GRCm39) with STAR aligner v2.7.8a. […] Changes in gene expression compared to cells expressing Nanoluc-EGFP were quantified using the edgeR package (Robinson et al., 2010).

For experiment [3], the system named is serum response element reporter in NIH3T3 cells. Put plainly: SRF reporter assay (SRE-Firefly luciferase). The note with it: NIH3T3 fibroblasts, 3×FLAG tagged constructs, no cofactors. The class given is cell-based, mouse. On the procedure: SRF functions together with either ternary complex factors (TCFs; e.g. ELK1) or myocardin-related transcription factors (MRTFs; e.g. MAL) to regulate target gene expression (Buchwalter et al., 2004; Olson and Nordheim, 2010). […] To test this further, the activity of different constructs was assayed in NIH3T3 fibroblasts using a luciferase-based serum response element reporter (Vartiainen et al., 2007).
SRF reporter assay. 30,000 NIH-3T3 cells on 24-well plates were transfected with 8 ng SRF reporter (p3DA.luc), 20 ng reference reporter (pcDNA3.1-Nanoluc-3×FLAG-V5) and 50 ng 3×FLAG tagged constructs (Addgene #87063). Transfection was carried out using Lipofectamine 3000 reagent (Thermo Fisher Scientific, L3000001) according to the manufacturer's protocols. Luciferase constructs were a kind gift from Dr. Maria Vartiainen (University of Helsinki). Cells were maintained in low-serum media (0.5% BCS) for 18 hours and stimulated for 7 hours (15% BCS), after which luciferase activity was measured. Firefly luciferase was normalized to Renilla luciferase activity using data from four independent transfections.
For orientation: Reporter assays use an easily measured gene product as a stand-in for the process of interest.

B1: RYBP: YAF2_RYBP domain of RYBP (protein, listed as Homo sapiens)
chain: IQSANATTKTSETNHTSRPRLKNVDRSTAQQLAVTVGNVTVIITDFKEKTRSSSTSSSTVTSSAGSEQQNQS
As for B1, in experiment [1], the “activation of the EGFP reporter when individually tested” value (“activation of the EGFP reporter” for short) is given as “robustly activated the reporter”.

B2: C3orf62-Cterm: C-terminal fragment of C3orf62 fused to SRF in the fusion (protein)
chain: AAVPCAPENENPAFATNHAPVNAKPHALCPERKPLTSKENVLMHSSILAPERESWRTAGEGENWRKENLRKDMERDLKADSNMPLNNSSQEVTKDLLDMIDHTSIRTIEELAGKIEFENELNHMCGHCQDSPFKEEAWALLMDKSPQKATDADPGSLKQAFDDHNIVETVLDLEEDYNVMTSFKYQIE
modifications: left off: things letters cannot carry; small tags and cut ends
notes: C-terminal fragment of C3orf62 fused to SRF in the fusion
As to B2, in experiment [1], the “activation of the EGFP reporter” value was “strongly activated the GFP reporter”.

B3: SRF: Serum Response Factor (protein)
chain: MLPTQAGAAAALGRGSALGGSLNRTPTGRPGGGGGTRGANGGRVPGNGAGLGPGRLEREAAAAAATTPAPTAGALYSGSEGDSESGEEEELGAERRGLKRSLSEMEIGMVVGGPEASAAATGGYGPVSGAVSGAKPGKKTRGRVKIKMEFIDNKLRRYTTFSKRKTGIMKKAYELSTLTGTQVLLLVASETGHVYTFATRKLQPMITSETGKALIQTCLNSPDSPPRSDPTTDQRMSATGFEETDLTYQVSESDSSGETKDTLKPAFTVTNLPGTTSTIQTAPSTSTTMQVSSGPSFPITNYLAPVSASVSPSAVSSANGTVLKSTGSGPVSSGGLMQLPTSFTLMPGGAVAQQVPVQAIQVHQAPQQASPSRDSSTDLTQTSSSGTVTLPATIMTSSVPTTVGGHMMYPSPHAVMYAPTSGLGDGSLTVLNAFSQAPSTMQVSHSQVQEPGGVPQVFLTASSGTVQIPVSAVQLHQMAVIGQQAGSSSNLTELQVVNLDTAHSTKSE
modifications: left off: things letters cannot carry; small tags and cut ends
notes: Serum Response Factor
For the molecule B3, the “effects on the transcriptome compared to Nanoluc” value in experiment [2] was “very limited or no effects on the transcriptome”. The “activation of serum response element luciferase reporter” value in experiment [3] was “did not activate the reporter”.

B4: CBX6: CBX-C domain of CBX6 (protein, listed as Homo sapiens)
chain: GASSEPEAGDWRPEMSPCSNVVVTDVTSNLLTVTIKEFCNPEDFEKVAAGVAGAAGGGGSIGASK
As to B4, the “activation of the EGFP reporter” value in experiment [1] is “activated the reporter weakly”.

B5: SPDYC: Spy1/RINGO family protein (protein, listed as Homo sapiens)
chain: MLWAIPELGSPCPISISYEMSDSQDPTTSPVVTTQVELGGCSRQGGGNGFLRFRQHQEVQAFLSLLEDSFVQEFLSKDPCFQISDKYLLAMVLVYFQRAHLKLSEYTHSSLFLALYLANDMEEDLEGPKCEIFPWALGKDWCLRVGKFLHQRDKLWARMGFRAVVSRQCCEEVMAKEPFHWAWTRDRRPHHGGVQRVCPQVPVRLPRGPGLSPPHCSPCGLPQHCSSHLLKPVSSKCPSLTSECHRPPSQNYLSRVKNAWGGDFLIVLPPQMQLEPGTYSLRIFPKPPARPGH
In the case of B5, the “activation of the EGFP reporter” value in experiment [1] was “inactive in the recruitment assay”.

B6: C3orf62: full-length C3orf62 protein (protein)
chain: MHYIKTWSLLGEMSEKLRRCRKELTAAIDRAFEGVSYSQECTGQQRLELSAAPLSFSLPVHRLLCRRHPLAACSSAAPFAAVPCAPENENPAFATNHAPVNAKPHALCPERKPLTSKENVLMHSSILAPERESWRTAGEGENWRKENLRKDMERDLKADSNMPLNNSSQEVTKDLLDMIDHTSIRTIEELAGKIEFENELNHMCGHCQDSPFKEEAWALLMDKSPQKATDADPGSLKQAFDDHNIVETVLDLEEDYNVMTSFKYQIE
modifications: left off: things letters cannot carry; small tags and cut ends
notes: full-length C3orf62 protein
As to B6, the “effects on the transcriptome compared to Nanoluc” value in experiment [2] is reported as “very limited or no effects on the transcriptome”. Besides, the “activation of serum response element luciferase reporter” value in experiment [3] is reported as “did not activate the reporter”.

The record behind these values is US20240309360A1, “TRANS-ACTIVATORS AND METHODS AND USE THEREOF” (THE GOVERNING COUNCIL OF THE UNIVERSITY OF TORONTO, priority 2021, published 2024).
